Laboratory results published in patent publication US20090286723A1.

What was measured:
[1] = biological target: neuropeptide Y2 receptor (SK-N-BE cell membranes) (UniProt P49146); assay: [125I]-human PYY displacement, SK-N-BE membranes
[2] = biological target: calcitonin receptor; assay: cell-based or functional assay
[3] = biological target: calcitonin receptor; assay: calcitonin receptor binding assay

neuropeptide Y2 receptor (SK-N-BE cell membranes), sequence (P49146 whole entry): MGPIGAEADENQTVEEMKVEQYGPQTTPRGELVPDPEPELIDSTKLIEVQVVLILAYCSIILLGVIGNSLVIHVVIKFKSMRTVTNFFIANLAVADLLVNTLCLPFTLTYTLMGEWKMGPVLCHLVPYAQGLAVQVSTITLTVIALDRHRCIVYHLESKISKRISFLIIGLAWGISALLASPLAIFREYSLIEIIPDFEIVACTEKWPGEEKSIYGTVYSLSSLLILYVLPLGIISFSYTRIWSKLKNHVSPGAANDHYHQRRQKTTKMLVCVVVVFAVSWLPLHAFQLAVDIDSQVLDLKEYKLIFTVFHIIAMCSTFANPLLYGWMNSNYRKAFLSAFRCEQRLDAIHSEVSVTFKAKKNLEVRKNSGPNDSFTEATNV

| Substance | Receptor Binding [1] | Receptor Activation: CT cyclase [2] | Receptor Binding [3] |
| --- | --- | --- | --- |
| [#Cys-Gly-Gly-PYY (3-36), amide] [Asp(#)-Pro-Pro-Pro-Pro-Pro-Pro-PYY (3-36), amide] (peptide; modification not given) | 0.8 |  |  |
| [#Cys-Gly-Gly-PYY (3-36), amide] [Asp(#)-miniPEG3-Gly-PYY (3-36), amide] (peptide; modification not given) | 0.8 |  |  |
| [#NH-Cys-(bAla)-PYY-(3-36), amide] [#Suc-(bAla)-PYY-(3-36), amide] (peptide) |  | 2270 | 643 |
| [Ac-alpha-MSH-bAla-bAla-PYY-(3-36), amide] (peptide; modification not given) | 0.2 |  |  |
| [Asp(#)-miniPEG-Gly-PYY (3-36), amide] [#Cys-Gly-Gly-PYY (3-36), amide] (peptide; modification not given) | 0.8 |  |  |
